According to US20110142868A1 (CHIRALIX B V, published 2011):
Numbered stars: 1 amine (or outer) side, 2 acyl side, 3 side chain; on linkers, the order of the positions; unused ones are H or OH. Square brackets hold non-standard residues; d marks the D form. Orn(CA) = ornithine chloroamidine, O(CA), N=C(CCl)NCCC[C@H](N[*:1])C(=O)[*:2]; Orn(fluoroacetimidoyl) = N=C(CF)NCCC[C@H](N)C(=O)O

How the values were obtained:
recombinant human PAD2 = recombinant human PAD2 (human, UniProt Q9Y2J8 1-665); assay: cell-based or functional assay
recombinant human PAD4 = recombinant human PAD4 (human, UniProt Q9UM07 1-663); assay: cell-based or functional assay
Sequence of recombinant human PAD4 (Q9UM07 whole entry): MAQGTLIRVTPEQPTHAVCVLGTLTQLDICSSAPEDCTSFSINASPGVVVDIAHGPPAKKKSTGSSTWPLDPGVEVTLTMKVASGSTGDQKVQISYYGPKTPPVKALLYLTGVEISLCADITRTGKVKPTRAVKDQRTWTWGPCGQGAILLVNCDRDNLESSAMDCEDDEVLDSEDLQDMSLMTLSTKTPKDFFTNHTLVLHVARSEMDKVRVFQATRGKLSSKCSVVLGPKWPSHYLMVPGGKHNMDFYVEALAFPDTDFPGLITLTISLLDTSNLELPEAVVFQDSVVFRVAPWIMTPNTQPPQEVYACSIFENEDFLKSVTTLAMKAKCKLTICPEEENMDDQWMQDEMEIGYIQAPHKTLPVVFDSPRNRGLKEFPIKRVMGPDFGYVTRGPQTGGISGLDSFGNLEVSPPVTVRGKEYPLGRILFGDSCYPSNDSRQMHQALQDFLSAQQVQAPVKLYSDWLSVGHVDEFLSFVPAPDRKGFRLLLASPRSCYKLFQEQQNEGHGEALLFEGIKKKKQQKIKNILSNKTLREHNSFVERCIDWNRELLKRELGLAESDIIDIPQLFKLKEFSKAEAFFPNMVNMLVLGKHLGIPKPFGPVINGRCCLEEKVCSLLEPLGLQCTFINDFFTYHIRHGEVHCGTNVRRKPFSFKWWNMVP

Sequence of recombinant human PAD2 (Q9Y2J8 whole entry): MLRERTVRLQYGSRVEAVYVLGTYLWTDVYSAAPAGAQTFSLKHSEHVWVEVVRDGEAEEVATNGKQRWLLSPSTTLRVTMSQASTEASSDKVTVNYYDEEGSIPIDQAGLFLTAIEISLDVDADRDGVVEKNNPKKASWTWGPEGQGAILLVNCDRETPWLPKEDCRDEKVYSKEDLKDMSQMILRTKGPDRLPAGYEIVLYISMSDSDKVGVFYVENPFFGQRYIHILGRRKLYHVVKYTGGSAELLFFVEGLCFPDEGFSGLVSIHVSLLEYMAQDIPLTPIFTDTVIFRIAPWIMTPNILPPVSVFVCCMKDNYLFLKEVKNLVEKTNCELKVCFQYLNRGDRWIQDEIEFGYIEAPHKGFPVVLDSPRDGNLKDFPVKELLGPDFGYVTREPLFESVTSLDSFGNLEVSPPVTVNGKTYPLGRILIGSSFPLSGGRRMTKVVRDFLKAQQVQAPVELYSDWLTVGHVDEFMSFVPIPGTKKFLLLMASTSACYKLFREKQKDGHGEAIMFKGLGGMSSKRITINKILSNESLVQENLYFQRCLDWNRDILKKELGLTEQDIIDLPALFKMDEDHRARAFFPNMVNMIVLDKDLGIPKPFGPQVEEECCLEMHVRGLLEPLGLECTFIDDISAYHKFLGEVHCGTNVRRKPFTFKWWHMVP

Row | conversion of 0708-30 by PAD2, 10 µM inhibitor (recombinant human PAD2) | conversion of 0708-30 by PAD2, 50 µM inhibitor (recombinant human PAD2) | conversion of 0708-30 by PAD2, 100 µM inhibitor (recombinant human PAD2) | conversion of 0708-30 by PAD4, 10 µM inhibitor (recombinant human PAD4) | conversion of 0708-30 by PAD4, 50 µM inhibitor (recombinant human PAD4) | conversion of 0708-30 by PAD4, 100 µM inhibitor (recombinant human PAD4) | Binder
1 | 62% | 24% | 14% | 64% | 28% | 14% | Ac-FFDSHKLH[Orn(fluoroacetimidoyl)]EWMWSD-NH2 (SMILES CSCC[C@H](NC(=O)[C@H](Cc1c[nH]c2ccccc12)NC(=O)[C@H](CCC(=O)O)NC(=O)[C@H](CCCNC(=N)CF)NC(=O)[C@H](Cc1c[nH]cn1)NC(=O)[C@H](CC(C)C)NC(=O)[C@H](CCCCN)NC(=O)[C@H](Cc1c[nH]cn1)NC(=O)[C@H](CO)NC(=O)[C@H](CC(=O)O)NC(=O)[C@H](Cc1ccccc1)NC(=O)[C@H](Cc1ccccc1)NC(C)=O)C(=O)N[C@@H](Cc1c[nH]c2ccccc12)C(=O)N[C@@H](CO)C(=O)N[C@@H](CC(=O)O)C(N)=O) [0741-04FA]
2 | 73% | 42% | 25% | 74% | 43% | 27% | Ac-DSKKHD[Orn(fluoroacetimidoyl)]DFLYSD-NH2 (SMILES CC(=O)N[C@@H](CC(=O)O)C(=O)N[C@@H](CO)C(=O)N[C@@H](CCCCN)C(=O)N[C@@H](CCCCN)C(=O)N[C@@H](Cc1c[nH]cn1)C(=O)N[C@@H](CC(=O)O)C(=O)N[C@@H](CCCNC(=N)CF)C(=O)N[C@@H](CC(=O)O)C(=O)N[C@@H](Cc1ccccc1)C(=O)N[C@@H](CC(C)C)C(=O)N[C@@H](Cc1ccc(O)cc1)C(=O)N[C@@H](CO)C(=O)N[C@@H](CC(=O)O)C(N)=O) [0741-06FA]
3 | 54% | 24% | 15% | 55% | 22% | 14% | Ac-DSHKFD[Orn(fluoroacetimidoyl)]DFIYSD-NH2 (SMILES CC[C@H](C)[C@H](NC(=O)[C@H](Cc1ccccc1)NC(=O)[C@H](CC(=O)O)NC(=O)[C@H](CCCNC(=N)CF)NC(=O)[C@H](CC(=O)O)NC(=O)[C@H](Cc1ccccc1)NC(=O)[C@H](CCCCN)NC(=O)[C@H](Cc1c[nH]cn1)NC(=O)[C@H](CO)NC(=O)[C@H](CC(=O)O)NC(C)=O)C(=O)N[C@@H](Cc1ccc(O)cc1)C(=O)N[C@@H](CO)C(=O)N[C@@H](CC(=O)O)C(N)=O) [0741-05FA]
4 | 69% | 38% | 23% | 63% | 31% | 17% | Ac-FFDSKHFD[Orn(CA)]EWIWSD-NH2 (SMILES CC[C@H](C)[C@H](NC(=O)[C@H](Cc1c[nH]c2ccccc12)NC(=O)[C@H](CCC(=O)O)NC(=O)[C@H](CCCNC(=N)CCl)NC(=O)[C@H](CC(=O)O)NC(=O)[C@H](Cc1ccccc1)NC(=O)[C@H](Cc1c[nH]cn1)NC(=O)[C@H](CCCCN)NC(=O)[C@H](CO)NC(=O)[C@H](CC(=O)O)NC(=O)[C@H](Cc1ccccc1)NC(=O)[C@H](Cc1ccccc1)NC(C)=O)C(=O)N[C@@H](Cc1c[nH]c2ccccc12)C(=O)N[C@@H](CO)C(=O)N[C@@H](CC(=O)O)C(N)=O) [0741-01CA]

Second part, the binder before the results:

Row | Binder | conversion of 0708-30 by PAD2, 10 µM inhibitor (recombinant human PAD2) | conversion of 0708-30 by PAD2, 50 µM inhibitor (recombinant human PAD2) | conversion of 0708-30 by PAD2, 100 µM inhibitor (recombinant human PAD2) | conversion of 0708-30 by PAD4, 10 µM inhibitor (recombinant human PAD4) | conversion of 0708-30 by PAD4, 50 µM inhibitor (recombinant human PAD4) | conversion of 0708-30 by PAD4, 100 µM inhibitor (recombinant human PAD4)
5 | Ac-DSHKFD[Orn(CA)]DFIYSD-NH2 (SMILES CC[C@H](C)[C@H](NC(=O)[C@H](Cc1ccccc1)NC(=O)[C@H](CC(=O)O)NC(=O)[C@H](CCCNC(=N)CCl)NC(=O)[C@H](CC(=O)O)NC(=O)[C@H](Cc1ccccc1)NC(=O)[C@H](CCCCN)NC(=O)[C@H](Cc1c[nH]cn1)NC(=O)[C@H](CO)NC(=O)[C@H](CC(=O)O)NC(C)=O)C(=O)N[C@@H](Cc1ccc(O)cc1)C(=O)N[C@@H](CO)C(=O)N[C@@H](CC(=O)O)C(N)=O) [0741-05CA] | 62% | 44% | 31% | 74% | 34% | 25%
6 | Ac-FFDSKHFD[Orn(fluoroacetimidoyl)]EWIWSD-NH2 (SMILES CC[C@H](C)[C@H](NC(=O)[C@H](Cc1c[nH]c2ccccc12)NC(=O)[C@H](CCC(=O)O)NC(=O)[C@H](CCCNC(=N)CF)NC(=O)[C@H](CC(=O)O)NC(=O)[C@H](Cc1ccccc1)NC(=O)[C@H](Cc1c[nH]cn1)NC(=O)[C@H](CCCCN)NC(=O)[C@H](CO)NC(=O)[C@H](CC(=O)O)NC(=O)[C@H](Cc1ccccc1)NC(=O)[C@H](Cc1ccccc1)NC(C)=O)C(=O)N[C@@H](Cc1c[nH]c2ccccc12)C(=O)N[C@@H](CO)C(=O)N[C@@H](CC(=O)O)C(N)=O) [0741-01FA] | 69% | 29% | 14% | 63% | 24% | 15%
7 | Ac-FFDSHKWH[Orn(CA)]DFFYSD-NH2 (SMILES CC(=O)N[C@@H](Cc1ccccc1)C(=O)N[C@@H](Cc1ccccc1)C(=O)N[C@@H](CC(=O)O)C(=O)N[C@@H](CO)C(=O)N[C@@H](Cc1c[nH]cn1)C(=O)N[C@@H](CCCCN)C(=O)N[C@@H](Cc1c[nH]c2ccccc12)C(=O)N[C@@H](Cc1c[nH]cn1)C(=O)N[C@@H](CCCNC(=N)CCl)C(=O)N[C@@H](CC(=O)O)C(=O)N[C@@H](Cc1ccccc1)C(=O)N[C@@H](Cc1ccccc1)C(=O)N[C@@H](Cc1ccc(O)cc1)C(=O)N[C@@H](CO)C(=O)N[C@@H](CC(=O)O)C(N)=O) [0741-02CA] | 67% | 32% | 18% | 63% | 31% | 19%
8 | Ac-DSKKHD[Orn(CA)]DFLYSD-NH2 (SMILES CC(=O)N[C@@H](CC(=O)O)C(=O)N[C@@H](CO)C(=O)N[C@@H](CCCCN)C(=O)N[C@@H](CCCCN)C(=O)N[C@@H](Cc1c[nH]cn1)C(=O)N[C@@H](CC(=O)O)C(=O)N[C@@H](CCCNC(=N)CCl)C(=O)N[C@@H](CC(=O)O)C(=O)N[C@@H](Cc1ccccc1)C(=O)N[C@@H](CC(C)C)C(=O)N[C@@H](Cc1ccc(O)cc1)C(=O)N[C@@H](CO)C(=O)N[C@@H](CC(=O)O)C(N)=O) [0741-06CA] | 63% | 45% | 48% | 74% | 64% | 50%
9 | Ac-FFDSHKLH[Orn(CA)]EWMWSD-NH2 (SMILES CSCC[C@H](NC(=O)[C@H](Cc1c[nH]c2ccccc12)NC(=O)[C@H](CCC(=O)O)NC(=O)[C@H](CCCNC(=N)CCl)NC(=O)[C@H](Cc1c[nH]cn1)NC(=O)[C@H](CC(C)C)NC(=O)[C@H](CCCCN)NC(=O)[C@H](Cc1c[nH]cn1)NC(=O)[C@H](CO)NC(=O)[C@H](CC(=O)O)NC(=O)[C@H](Cc1ccccc1)NC(=O)[C@H](Cc1ccccc1)NC(C)=O)C(=O)N[C@@H](Cc1c[nH]c2ccccc12)C(=O)N[C@@H](CO)C(=O)N[C@@H](CC(=O)O)C(N)=O) [0741-04CA] | 69% | 47% | 50% | 68% | 55% | 26%
10 | Ac-FFDSHKFD[Orn(CA)]DFIYSD-NH2 (SMILES CC[C@H](C)[C@H](NC(=O)[C@H](Cc1ccccc1)NC(=O)[C@H](CC(=O)O)NC(=O)[C@H](CCCNC(=N)CCl)NC(=O)[C@H](CC(=O)O)NC(=O)[C@H](Cc1ccccc1)NC(=O)[C@H](CCCCN)NC(=O)[C@H](Cc1c[nH]cn1)NC(=O)[C@H](CO)NC(=O)[C@H](CC(=O)O)NC(=O)[C@H](Cc1ccccc1)NC(=O)[C@H](Cc1ccccc1)NC(C)=O)C(=O)N[C@@H](Cc1ccc(O)cc1)C(=O)N[C@@H](CO)C(=O)N[C@@H](CC(=O)O)C(N)=O) [0741-03CA] | 57% | 49% | 23% | 62% | 24% | 14%
11 | Ac-FFDSHKWH[Orn(fluoroacetimidoyl)]DFFYSD-NH2 (SMILES CC(=O)N[C@@H](Cc1ccccc1)C(=O)N[C@@H](Cc1ccccc1)C(=O)N[C@@H](CC(=O)O)C(=O)N[C@@H](CO)C(=O)N[C@@H](Cc1c[nH]cn1)C(=O)N[C@@H](CCCCN)C(=O)N[C@@H](Cc1c[nH]c2ccccc12)C(=O)N[C@@H](Cc1c[nH]cn1)C(=O)N[C@@H](CCCNC(=N)CF)C(=O)N[C@@H](CC(=O)O)C(=O)N[C@@H](Cc1ccccc1)C(=O)N[C@@H](Cc1ccccc1)C(=O)N[C@@H](Cc1ccc(O)cc1)C(=O)N[C@@H](CO)C(=O)N[C@@H](CC(=O)O)C(N)=O) [0741-02FA] | 52% | 17% | 7% | 50% | 20% | 16%
